We go through 13 molecules from US20090214558A1 (Pfizer, published 2009).

Positions count from the first letter of the chain named. Where only a bound is given, the exact number is not on record here.

First the molecules themselves.
T1: MAdCAM (analyte of the BIAcore experiment) (UniProt Q13477 19-317)
T1 construct: The antibodies are called anti-hMAdCAM; also called Mucosal addressin cell adhesion molecule
T1 sequence (looked up): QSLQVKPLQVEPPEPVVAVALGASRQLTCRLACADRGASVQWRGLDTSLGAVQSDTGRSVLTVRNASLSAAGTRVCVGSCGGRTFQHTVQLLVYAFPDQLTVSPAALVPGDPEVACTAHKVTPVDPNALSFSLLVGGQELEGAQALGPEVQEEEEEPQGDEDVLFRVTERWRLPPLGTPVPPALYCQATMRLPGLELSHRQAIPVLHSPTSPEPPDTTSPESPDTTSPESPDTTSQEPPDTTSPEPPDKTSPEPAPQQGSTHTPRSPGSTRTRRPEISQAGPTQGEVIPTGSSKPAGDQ

B1: 7.16.6_L (antibody, V domains shown)
VH: QVQLVQSGAEVKKPGASVKVSCKASGYTFTSYGINWVRQAPGQGLEWMGWISVYSGNTNYAQKLQGRVTMTADTSTSTAYMDLRSLRSDDTAVYYCAREGSSSSGDYYYGMDVWGQGTTVTVSS
VL: DIVMTQTPLSLSVTPGQPASISCKSSQSLLHTDGTTYLYWYLQKPGQPPQLLIYEVSNRFSGVPDRFSGSGSGTDFTLKISRVEAEDVGIYYCMQNIQLPWTFGQGTKVEIKR
notes: The light chain is the parent 7.16.6 kappa chain, rebuilt as for m1; also called 7.16.6_L variant
B2: 7.16.6_VS (antibody, human IgG2, kappa, V domains shown)
VH: B1 VH with L64V
VL: B1 VL with I90V, N96S
notes: Recombinant, from transiently transfected FreeStyle HEK293 cells; also called 7.16.6_VS adduct
B3: 7.16.6_S (antibody, human IgG2, kappa, V domains shown)
VH: B1 VH with L64V
VL: B1 VL with N96S
notes: Recombinant, from transiently transfected FreeStyle HEK293 cells; also called 7.16.6-5; 7.16.6_5
B4: 7.16.6_LVS (antibody, human IgG2, kappa, V domains shown)
VH: B1 VH
VL: B1 VL with I90V, N96S
notes: Recombinant, from transiently transfected FreeStyle HEK293 cells
B5: 7.16.6_V (antibody, human IgG2, kappa, V domains shown)
VH: B1 VH with L64V
VL: B1 VL with I90V
notes: Recombinant, from transiently transfected FreeStyle HEK293 cells; also called 7.16.6_V adduct
B6: 6.34.2 (antibody, V domains shown)
VH: QVQLVESGGGVVQPGRSLRLSCAASGFTFSSYGMHWVRQAPGKGLEWVAVISNDGNNKYYADSVKGRFTISRDNSKNTLYLQMNSLSAEDTAVYYCARDSTAITYYYYGMDVWGQGTTVTVSS
VL: DIQMTQSPSSLSASVGDRVTITCRASQNISSYLNWFQQKPGKAPKLLIYAASGLKRGVPSRFSGSGSGTDFTLTIRTLQPDDFATYSCHQSYSLPFTFGPGTKVDIKR
B7: 6.34.2-mod_SSQ (antibody, human IgG2, kappa, V domains shown)
VH: B6 VH with S87R
VL: B6 VL with N28S, F36Y, G53S, K55S, R56Q, R76S, T77S, D81E, S87Y
notes: Purified recombinant antibody
B8: 6.22.2 (antibody, V domains shown)
VH: QVQLVESGGGVVQPGRSLRLSCAASGHTFSSDGMHWVRQAPGKGLEWVAIIWYDGSNKYYADSVKGRFTISRDNSKNTLYLQMNSLRAEDTAVYYCARDPGYYYGMDVWGQGTTVTVSS
VL: EIVLTQSPDFQSVTPKEKVTITCRASQRIGSSLHWYQQKPDQSPKLLIKYASQSFSGVPSRFSGSGSGTNFTLTINGLEAEDAATYYCHQSGRLPLTFGGGTKVEIKR
B9: 6.22.2-mod_V (antibody, human IgG2, kappa, V domains shown)
VH: B8 VH with H27F, I50V
VL: B8 VL with N70D, G77S
notes: Purified recombinant antibody
B10: 6.67.1 (antibody, V domains shown)
VH: QVQLQESGPGLVKPSETLSLTCTVSGDSISSNYWSWIRQPAGKGLEWIGRIYTSGGTNSNPSLRGRVTILADTSKNQFSLKLSSVTAADTAVYYCARDRITIIRGLIPSFFDYWGQGTLVTVSS
VL: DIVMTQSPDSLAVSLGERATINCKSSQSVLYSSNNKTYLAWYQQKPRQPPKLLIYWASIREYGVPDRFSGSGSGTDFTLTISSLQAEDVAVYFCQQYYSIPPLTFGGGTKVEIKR
B11: 6.67.1-mod_Y (antibody, V domains shown)
VH: B10 VH with I69M, L70S, A71V
VL: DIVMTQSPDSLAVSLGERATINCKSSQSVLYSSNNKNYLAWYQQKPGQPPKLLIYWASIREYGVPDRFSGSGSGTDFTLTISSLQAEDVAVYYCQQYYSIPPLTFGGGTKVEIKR
B12: 6.77.1-mod_ΔS (antibody, human IgG2, kappa, V domains shown)
VH: EVQLVESGGGLVKPGGSLRLSCAASGFTFSSYSMNWVRQAPGKGLEWVSSISSSSSYIYYADSVKGRFTISRDNAKNSLYLQMNSLRAEDTAVYYCARDGYSSGWYYYYYGMDVWGQGTTVTVSS
VL: DIVMTQTPLSLSVTPGQPASISCKSSQSLLLSDGKTYLNWYLQKPGQPPQLLIYEVSNRFSGVPDRFSGSGSGTDFTLKISRVEAEDVGVYSCMQSIQLMSSFGQGTKLEIKR
notes: Purified recombinant antibody; also called 6.77.1-mod_ΔAS
B13: 9.8.2-mod_ΔRGAYH,D (antibody, human IgG4, kappa, V domains shown)
VH: QVQLVESGGGVVQPGRSLRLSCAASGFTFSSYGMHWVRQAPGKGLEWVAVIWYDGSNEYYADSVKGRFTISRDNSKNTLYLQMNSLRAEDTAVYYCAFDYWGQGTLVTVSS
VL: DIQMTQSPSSLSASVGDRVTITCQASQDISNYLNWYQQKPGKAPKLLIYDASNLETGVPSRFSGSGSGTDFTFTISSLQPEDIATYSCQHSDNLITFGQGTRLEIKR
notes: Purified recombinant antibody; The heavy-chain constant region as printed is IgG4-like; also called 9.8.2_ΔRGAYH,D

The first assay has as its target T2, MAdCAM-IgG1 Fc fusion protein.
T2 construct: Made in CHO-DHFR cells and coated on plates at 4.5 µg/mL
The assay can be described thus: inhibition of adhesion of calcein-loaded JY cells to plate-coated MAdCAM-IgG1 Fc fusion (fluorescence). As to the method:
The cells were washed twice with RPMI 1640 media (Gibco) containing 2 mM L-glutamine (Gibco) by centrifugation (240 g), resuspending the final cell pellet at 2×10⁶ cells/mL in RPMI 1640 for Calcein AM loading. Calcein AM (Molecular Probes #C-3099) was added to the cells as a 1:200 dilution in DMSO (ca. final concentration 5 μM) and the cells protected from light during the course of the incubation (37° C. for 30 min). During this cell incubation step the antibodies to be tested, were diluted as follows: for single dose testing, the antibodies were made up to 3 μg/mL (1 μg/mL final) in 0.1 mg/mL BSA (Sigma#A3059) in PBS; for full IC₅₀ curves, the antibodies were diluted in 0.1 mg/mL BSA/PBS, with 3 μg/mL (1 μg/mL final) being the top concentration, then doubling dilutions (1:2 ratio) across the plate. The final well of the row was used for determining total binding, so 0.1 mg/ml BSA in PBS was used.
After blocking, the plate contents were flicked out and 50 μL of antibodies/controls were added to each well and the plate incubated at 37° C. for 20 min. During this time, Calcein-loaded JY cells were washed once with RPMI 1640 media containing 10% fetal bovine serum and once with 1 mg/mL BSA/PBS by centrifugation, resuspending the final cell pellet to 1×10⁶/mL in 1 mg/mL BSA/PBS. 100 μL of cells were added to each well of the U bottomed plate, the plate sealed, briefly centrifuged (1000 rpm for 2 min) and the plate then incubated at 37° C. for 45 min. At the end of this time, the plates were washed with a Skatron plate washer and fluorescence measured using a Wallac Victor² 1420 Multilabel Reader (excitation λ485 nm, emission λ535 nm count from top, 8 mm from bottom of plate, for 0.1 sec with normal emission aperture). For each antibody concentration, percent adhesion was expressed as a percentage of maximal fluorescence response in the absence of any antibody minus fluorescence associated with non-specific binding. The IC₅₀ value is defined as the anti-MAdCAM antibody concentration at which the adhesion response is decreased to 50% of the response in the absence of anti-MAdCAM antibody. Antibodies that were able to inhibit the binding of JY cells to MAdCAM-IgG₁ Fc fusion with an IC₅₀ value <0.1 μg/mL, were considered to have potent antagonist activity and were progressed to the MAdCAM-CHO adhesion assay.
Target sequence in this assay (chain, as listed by the source limits assumed): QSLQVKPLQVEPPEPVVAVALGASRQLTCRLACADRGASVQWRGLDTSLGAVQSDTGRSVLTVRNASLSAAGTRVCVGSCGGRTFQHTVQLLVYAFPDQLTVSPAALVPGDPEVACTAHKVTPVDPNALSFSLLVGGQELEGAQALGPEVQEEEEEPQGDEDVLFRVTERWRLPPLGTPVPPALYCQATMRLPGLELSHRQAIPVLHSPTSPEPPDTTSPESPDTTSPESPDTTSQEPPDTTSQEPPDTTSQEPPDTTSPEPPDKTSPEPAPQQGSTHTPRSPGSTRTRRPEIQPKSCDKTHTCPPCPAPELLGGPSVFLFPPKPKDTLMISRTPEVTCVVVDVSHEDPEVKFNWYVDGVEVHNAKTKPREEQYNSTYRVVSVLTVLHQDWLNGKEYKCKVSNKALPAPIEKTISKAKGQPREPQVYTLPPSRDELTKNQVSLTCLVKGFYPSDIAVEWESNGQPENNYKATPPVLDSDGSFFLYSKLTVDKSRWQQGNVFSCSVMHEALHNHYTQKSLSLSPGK
For B1, the IC50 is 0.0356 µg/mL.

B2: the IC50 was 0.0582 µg/mL.

For B3, the IC50 is 0.0342 µg/mL.

B4: the IC50 is 0.0458 µg/mL.

For B5, the IC50 is 0.0412 µg/mL.

The target is the same in a further assay. As to the kind of experiment: MAdCAM-IgG1 Fc fusion: JY cell binding assay (inhibition of JY cell adhesion).
Take B6: the IC50 stood at 0.013 µg/mL.

Take B7: the concentration for half-maximal inhibition (IC50) was 0.086 µg/mL.

The molecule B8 returned an IC50 of 0.018 µg/mL.

With B9, the half-maximal inhibitory concentration (IC50) is 0.076 µg/mL.

The molecule B10 yielded a 50% inhibitory concentration (IC50) of 0.013 µg/mL.

In turn, B11 registered an IC50 of 0.063 µg/mL.

With B12, the half-maximal inhibitory concentration (IC50) amounted to 0.0485 µg/mL.

As for B13, the concentration for half-maximal inhibition (IC50) was found to be 0.072 µg/mL.

For the next assay, the target named is T1, MAdCAM (analyte of the BIAcore …). As to the kind of experiment: BIAcore (SPR); antibody immobilised, MAdCAM injected. In general terms: In SPR one partner is held on a chip, and binding of the other changes the refractive index at the surface.
In turn, B1 showed a dissociation constant (Kd) of 79.5 pM, a koff of 1.21e-05 s⁻¹ and a kon of 152000 M⁻¹ s⁻¹.

Molecule B2 had a dissociation constant Kd of 90.8 pM, a koff of 2.18e-05 s⁻¹ and a kon of 240000 M⁻¹ s⁻¹.

For B3, the Kd turned out to be 23.2 pM and the kon turned out to be 183000 M⁻¹ s⁻¹.

The molecule B4 showed a Kd of 119 pM, a koff of 2.31e-05 s⁻¹ and an on-rate (kon) of 194000 M⁻¹ s⁻¹.

In the case of B5, binding was characterised by a dissociation constant (Kd) of 162 pM, the dissociation rate constant (koff) was determined as 2.49e-05 s⁻¹ and the kon came out at 153000 M⁻¹ s⁻¹.

The target is the same in another assay. As to the kind of experiment: BIAcore (SPR); antibody immobilised, MAdCAM injected; footnote: below the instrument's lower limit of 5 × 10^-6 s^-1.
In the case of B3, the koff is 4.27e-06 s⁻¹.

The next assay has the same target. As to the kind of experiment: BIAcore (SPR); KD restated from the instrument's off-rate limit; the footnote says 7.16.6_V, but the ka used and the asterisk belong to 7.16.6_S; KD bound restated from the BIAcore off-rate limit (5 × 10^-6 s^-1), not the fitted 23.2 pM.
B3 registered a dissociation constant (Kd) of less than 27.3 pM.

By IC50 is commonly meant the concentration at which inhibition is half-maximal. The term Kd denotes a measure of binding affinity in units of concentration. Low values mean higher affinity, high ones lower affinity. One may read the koff as the rate constant with which the complex falls apart. A high value points to a short-lived complex. What is called kon is the second-order rate constant of association. A higher kon goes with fast association.
